# Measurements: patent US9809653B2, “Anti-LAMP1 antibodies and antibody drug conjugates, and uses thereof” (SANOFI, priority 2012, dated 2017)
# T1: Hybrid LAMP1 / glycan-deleted LAMP1 transmembrane proteins (Homo sapiens, UniProt P11279, A49S/D55E/N45S/N53T/S51L/V52T)
# T1 construct: expressed in transfected cells; host or cells: 293-F (HEK293-derived), transient transfection
# T1 sequence (P11279 with tags, fused parts or gaps N45S/A49S/S51L/V52T/N53T/D55E): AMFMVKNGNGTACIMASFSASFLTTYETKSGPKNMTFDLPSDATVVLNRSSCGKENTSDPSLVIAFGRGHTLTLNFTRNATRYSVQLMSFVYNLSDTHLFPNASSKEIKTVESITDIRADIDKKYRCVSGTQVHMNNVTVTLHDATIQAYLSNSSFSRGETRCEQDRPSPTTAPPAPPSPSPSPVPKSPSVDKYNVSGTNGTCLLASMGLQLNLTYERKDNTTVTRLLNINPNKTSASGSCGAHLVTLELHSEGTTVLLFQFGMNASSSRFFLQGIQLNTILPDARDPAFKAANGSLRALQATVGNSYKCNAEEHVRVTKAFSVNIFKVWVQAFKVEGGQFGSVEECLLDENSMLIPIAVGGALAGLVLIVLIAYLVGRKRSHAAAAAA
# T2: Hybrid LAMP1 / glycan-deleted LAMP1 transmembrane proteins (Homo sapiens, UniProt P11279, D66S/F65I/K57A/K61Q/M63V/N62I/P60S/S58N/T64N)
# T2 construct: expressed in transfected cells; host or cells: 293-F (HEK293-derived), transient transfection
# T2 sequence (P11279 with tags, fused parts or gaps K57A/S58N/P60S/K61Q/N62I/M63V/T64N/F65I/D66S): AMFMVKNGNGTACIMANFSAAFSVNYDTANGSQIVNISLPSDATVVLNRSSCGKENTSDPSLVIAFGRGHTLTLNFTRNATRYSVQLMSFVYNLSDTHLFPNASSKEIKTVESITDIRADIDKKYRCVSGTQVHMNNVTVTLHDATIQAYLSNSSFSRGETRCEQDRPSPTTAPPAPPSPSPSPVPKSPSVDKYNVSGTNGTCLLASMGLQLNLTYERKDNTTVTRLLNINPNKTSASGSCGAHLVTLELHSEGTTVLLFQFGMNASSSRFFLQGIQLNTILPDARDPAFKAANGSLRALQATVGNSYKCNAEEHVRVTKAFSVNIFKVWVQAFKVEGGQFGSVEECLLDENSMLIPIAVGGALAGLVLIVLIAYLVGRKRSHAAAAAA
# T3: Hybrid LAMP1 / glycan-deleted LAMP1 transmembrane proteins (Mus musculus, UniProt P11438, E181G/G176S/K100R/K180R/L93T/N177S/S175N/T102A/Y92H)
# T3 construct: expressed in transfected cells; host or cells: 293-F (HEK293-derived), transient transfection
# T3 sequence (P11438 with tags, fused parts or gaps Y92H/L93T/K100R/T102A/S175N/G176S/N177S/K180R/E181G): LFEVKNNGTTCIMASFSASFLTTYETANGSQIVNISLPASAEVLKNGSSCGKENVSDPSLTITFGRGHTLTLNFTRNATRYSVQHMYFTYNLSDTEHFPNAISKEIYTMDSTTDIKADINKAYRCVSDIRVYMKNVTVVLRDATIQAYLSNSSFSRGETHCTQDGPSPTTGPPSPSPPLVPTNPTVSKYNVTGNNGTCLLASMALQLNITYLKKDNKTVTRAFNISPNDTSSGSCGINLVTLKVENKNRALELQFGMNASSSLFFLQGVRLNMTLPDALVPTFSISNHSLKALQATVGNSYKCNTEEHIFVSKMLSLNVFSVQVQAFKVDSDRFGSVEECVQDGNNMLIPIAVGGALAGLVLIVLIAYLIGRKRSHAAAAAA
# T4: Hybrid LAMP1 / glycan-deleted LAMP1 transmembrane proteins (Mus musculus, UniProt P11438, K100R/L93T/T102A/Y92H)
# T4 construct: expressed in transfected cells; host or cells: 293-F (HEK293-derived), transient transfection
# T4 sequence (P11438 with tags, fused parts or gaps Y92H/L93T/K100R/T102A): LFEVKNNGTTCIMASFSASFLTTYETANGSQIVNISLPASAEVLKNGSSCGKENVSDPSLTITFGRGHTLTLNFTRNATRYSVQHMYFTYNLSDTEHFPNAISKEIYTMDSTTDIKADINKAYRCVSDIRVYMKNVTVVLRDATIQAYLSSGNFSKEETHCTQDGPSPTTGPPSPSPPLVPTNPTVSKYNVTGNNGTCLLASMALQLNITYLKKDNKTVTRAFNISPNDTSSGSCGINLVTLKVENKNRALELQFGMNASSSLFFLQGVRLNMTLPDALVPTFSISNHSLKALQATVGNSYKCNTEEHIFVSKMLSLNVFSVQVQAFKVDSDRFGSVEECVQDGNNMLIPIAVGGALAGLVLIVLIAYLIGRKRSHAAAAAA
# What was measured:
# Experiment in all cases: Binding onto membrane-anchored hybrid or mutated LAMP1 proteins (293-F cells) by flow cytometry
# Set-up in all cases: species or system human/mouse
# [1] = molecular target: T1, Hybrid LAMP1 / glycan-deleted LAMP1 transmembrane proteins; details: pXL6013 LAMP1_mseq2_ΔGYQTI; Table 18
# Experimental: (§1) Different LAMP1 proteins were expressed at the cell membrane of HEK293 cells after transient expression from mammalian plasmids encoding the entire coding sequence of LAMP1 deleted of the intracellular lysosome-targeting motif GYQTI and substituted by a 5-Ala repeat sequence.
# (§2) Two days post transfection cells were processed, analyzed by flow cytometry (Guava® easyCyte™ 8HT) as mentioned in example 4.7, and the mean fluorescence was recorded. This fluorescence represents a semi-quantitative assessment of binding.
# [2] = test system: Hybrid LAMP1 / glycan-deleted LAMP1 transmembrane proteins; details: pXL6012 LAMP1_mseq1_ΔGYQTI; Table 18
# Experimental: as §1, §2
# Target sequence in this assay (as listed by the source, stated change not applied): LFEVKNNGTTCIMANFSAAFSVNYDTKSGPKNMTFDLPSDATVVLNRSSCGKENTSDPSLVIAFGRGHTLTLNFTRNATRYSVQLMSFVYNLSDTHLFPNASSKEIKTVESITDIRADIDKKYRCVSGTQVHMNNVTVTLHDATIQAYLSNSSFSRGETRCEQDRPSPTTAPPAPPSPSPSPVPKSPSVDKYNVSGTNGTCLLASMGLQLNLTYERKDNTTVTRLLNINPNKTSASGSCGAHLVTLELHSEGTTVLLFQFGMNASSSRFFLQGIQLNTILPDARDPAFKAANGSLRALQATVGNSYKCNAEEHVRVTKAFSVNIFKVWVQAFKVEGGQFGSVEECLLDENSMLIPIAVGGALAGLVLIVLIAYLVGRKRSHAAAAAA
# [3] = molecular target: T2, Hybrid LAMP1 / glycan-deleted LAMP1 transmembrane proteins; details: pXL6014 LAMP1_mseq3_ΔGYQTI; Table 18
# Experimental: as §1, §2
# [4] = molecular target: T3, Hybrid LAMP1 / glycan-deleted LAMP1 transmembrane proteins; details: pXL6041 mLAMP1_hseq6-11_ΔGYQTI
# Experimental: as §1, §2
# [5] = molecular target: T4, Hybrid LAMP1 / glycan-deleted LAMP1 transmembrane proteins; details: pXL6047 mLAMP1_hseq6_ΔGYQTI
# Experimental: as §1, §2
molecule,measurement,setting,value
"MAb2: murine monoclonal anti-LAMP1 antibody, VH SEQ ID NO: 8, VL SEQ ID NO: 12 (antibody, V domains shown, antibod fragment; antibody fragment) VH: QVQLQQSAAELARPGASVKMSCKASGYTFTSYTMHWVKQRPGQGLEWIGYFNPSSGYPEYNQKFKDKTTLTADKSSNTAFIQLNSLTSEDSAVYYCSRGYYYGSRGYALDFWGQGASVTVSS VL: NIVLTQSPVSLAVSLGQRATISCRASESVDINGNTFMHWYQQKPGQSPKLVIYAASNIESGVPARFSGSGSSTDFTFTIDPVEADDVATYYCQQNIEDPWTFGGGTKVEIK",Binding call,[1],Binding
same,Mean fluorescence,[1],694
same,Binding call,[2],Low binding
same,Mean fluorescence,[2],105
same,Binding call,[3],Binding
same,Mean fluorescence,[3],694
same,Binding call,[4]; Table 17 Experiment no1,No binding
same,Mean fluorescence,[4]; Table 17 Experiment no1,28
same,Binding call,[5]; Table 17 Experiment no1,No binding
same,Mean fluorescence,[5]; Table 17 Experiment no1,25
"MAb1: murine monoclonal anti-LAMP1 antibody, VH SEQ ID NO: 1, VL SEQ ID NO: 5 (antibody, V domains shown, Antibody Fragment; antibody fragment) VH: QVQLQQSGAELVKPGASVKMSCKASGYIFTNYNIHWVKKSPGQGLEWIGAIYPGNGDAPYSQKFKDKATLTADKSSSTTYMQLSRLTSEDSAVYYCVRANWDVAFAYWGQGTLVSVSA VL: DIQMTQSPPSLSASLGGKVTITCKASQDIDRYMAWYQDKPGKGPRLLIHDTSTLQPGIPSRFSGSGSGRDYSFSISNLEPEDIATYYCLQYDNLWTFGGGTKLEIK",Binding call,[1],Binding
same,Mean fluorescence,[1],990
same,Mean fluorescence,[2],1027
same,Binding call,[3],Binding
same,Mean fluorescence,[3],888
same,Binding call,[4]; Table 17 Experiment no1,Binding
same,Mean fluorescence,[4]; Table 17 Experiment no1,680
same,Binding call,[4]; Table 17 Experiment no2,binding
same,Mean fluorescence,[4]; Table 17 Experiment no2,211
same,Binding call,[5]; Table 17 Experiment no1,No binding
same,Mean fluorescence,[5]; Table 17 Experiment no1,7
same,Binding call,[5]; Table 17 Experiment no2,No binding
same,Mean fluorescence,[5]; Table 17 Experiment no2,3
